Molecular target: T1, CD54 (ICAM-1) (UniProt P05362 28-480, limits assumed)
T1 construct: Amine-coupled to a CM5 chip for SPR
Experiment: ELISA, CD11a A domain on ICAM-1

T1 sequence (P05362 28-480 limits assumed): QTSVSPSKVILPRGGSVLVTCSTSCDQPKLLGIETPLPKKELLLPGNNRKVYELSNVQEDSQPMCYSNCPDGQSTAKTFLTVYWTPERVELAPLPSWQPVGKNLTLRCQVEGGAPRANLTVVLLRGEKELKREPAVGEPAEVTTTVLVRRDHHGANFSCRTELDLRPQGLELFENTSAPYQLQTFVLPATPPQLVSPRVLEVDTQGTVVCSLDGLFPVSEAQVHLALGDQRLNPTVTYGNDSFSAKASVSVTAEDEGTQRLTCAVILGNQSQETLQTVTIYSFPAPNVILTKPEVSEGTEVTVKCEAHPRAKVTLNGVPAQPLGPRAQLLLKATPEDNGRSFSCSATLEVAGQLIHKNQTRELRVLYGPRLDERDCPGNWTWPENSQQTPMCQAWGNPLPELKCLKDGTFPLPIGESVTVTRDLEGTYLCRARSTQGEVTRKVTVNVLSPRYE

binding result: no binding
B1: wild-type CD11a A domain (receptor, human, UniProt P20701 150-333, looked up)
chain: CIKGNVDLVFLFDGSMSLQPDEFQKILDFMKDVMKKLSNTSYQFAAVQFSTSYKTEFDFSDYVKRKDPDALLKHVKHMLLLTNTFGAINYVATEVFREELGARPDATKVLIIITDGEATDSGNIDAAKDIIRYIIGIGKHFQTKESQETLHKFASKPASEFVKILDTFEKLKDLFTELQKKIYV
notes: domain: A domain; also called wild-type protein without this substitution

Source: US20030109691A1 (GENERAL HOSPITAL, published 2003)
